Experimental data taken from patent US12338277.

Experiments:
Test in all cases: cell-based or functional assay
[1] = target: HIV-1 envelope of pseudovirus A07412M1.vrc12 (HIV-1)
[2] = target: HIV-1 Env of pseudovirus Ce0393_C3 (HIV-1)
[3] = target: HIV-1 Env of pseudovirus HIV-16055-2.3 (HIV-1)
[4] = target: HIV-1 Env of pseudovirus ZM233M.PB6 (HIV-1)
[5] = target: HIV-1 envelope of pseudovirus 191084 B7-19 (HIV-1)
[6] = target: HIV-1 envelope of pseudovirus 211-9 (HIV-1)
[7] = target: HIV-1 envelope of pseudovirus BJOX009000.02.4 (HIV-1)
[8] = target: HIV-1 Env of pseudovirus CNE30 (HIV-1)
[9] = target: HIV-1 envelope of pseudovirus 6811.v7.c18 (HIV-1)
[10] = target: HIV-1 envelope of pseudovirus Ce1176_A3 (HIV-1)
[11] = target: HIV-1 envelope of pseudovirus 620345.c01 (HIV-1)
[12] = target: HIV-1 envelope of pseudovirus MS208.A1 (HIV-1)
[13] = target: HIV-1 envelope of pseudovirus 263-8 (HIV-1)
[14] = target: HIV-1 Env of pseudovirus T255-34 (HIV-1)
[15] = target: HIV-1 Env of pseudovirus Ce703010054_2A2 (HIV-1)
[16] = target: HIV-1 envelope of pseudovirus CNE30 (HIV-1)
[17] = target: HIV-1 envelope of pseudovirus 246F C1G (HIV-1)
[18] = target: HIV-1 envelope of pseudovirus AC10.0.29 (HIV-1)
[19] = target: HIV-1 envelope of pseudovirus C1080.c03 (HIV-1)
[20] = target: HIV-1 Env of pseudovirus 89-F1_2_25 (HIV-1)
[21] = target: HIV-1 envelope spike of pseudovirus PVO.4 (HIV-1)
[22] = target: HIV-1 Env of pseudovirus QH0692.42 (HIV-1)
[23] = target: HIV-1 Env of pseudovirus Q259.d2.17 (HIV-1)
[24] = target: HIV-1 envelope of pseudovirus ZM249M.PL1 (HIV-1)
[25] = target: HIV-1 Env of pseudovirus 6240_08_TA5_4622 (HIV-1)
[26] = target: HIV-1 envelope spike of pseudovirus SC422661.8 (HIV-1)
[27] = target: HIV-1 Env of pseudovirus ZM214M.PL15 (HIV-1)
[28] = target: HIV-1 envelope of pseudovirus X1254_c3 (HIV-1)
[29] = target: HIV-1 envelope of pseudovirus ZM109F.PB4 (HIV-1)
[30] = target: HIV-1 Env of pseudovirus 3365.v2.c2 (HIV-1)
[31] = target: HIV-1 Env of pseudovirus 6545.v4.c1 (HIV-1)
[32] = target: HIV-1 envelope of pseudovirus 6244_13_85_4576 (HIV-1)
[33] = target: HIV-1 Env of pseudovirus BJOX028000.10.3 (HIV-1)
[34] = target: HIV-1 Env of pseudovirus 0260.v5.c36 (HIV-1)
[35] = target: HIV-1 envelope of pseudovirus 0260.v5.c36 (HIV-1)
[36] = target: HIV-1 Env of pseudovirus ZM135M.PL10a (HIV-1)
[37] = target: HIV-1 Env of pseudovirus X1632_S2_B10 (HIV-1)
[38] = target: HIV-1 envelope of pseudovirus Ce0682_E4 (HIV-1)
[39] = target: HIV-1 Env of pseudovirus 9004SS_A3_4 (HIV-1)
[40] = target: HIV-1 Env of pseudovirus 3103.v3.c10 (HIV-1)
[41] = target: HIV-1 Env of pseudovirus C1080.c03 (HIV-1)
[42] = target: HIV-1 Env of pseudovirus CNE58 (HIV-1)
[43] = target: HIV-1 Env of pseudovirus 6041.v3.c23 (HIV-1)
[44] = target: HIV-1 envelope of pseudovirus ZM135M.PL10a (HIV-1)
[45] = target: HIV-1 envelope of pseudovirus Ce1086_B2 (HIV-1)
[46] = target: HIV-1 envelope of pseudovirus Ce0393_C3 (HIV-1)
[47] = target: HIV-1 Env of pseudovirus BJOX025000.01.1 (HIV-1)
[48] = target: HIV-1 envelope spike of pseudovirus SS1196.1 (HIV-1)
[49] = target: HIV-1 Env of pseudovirus T251-18 (HIV-1)
[50] = target: HIV-1 envelope of pseudovirus RHPA4259.7 (HIV-1)

PGT121 (antibody) showed an IC50 (TZM-bl neutralization) [1] of 0.001 µg/mL, an IC80 (TZM-bl neutralization) [2] of over 50 µg/mL and an IC80 (TZM-bl neutralization) [3] of 4.29 µg/mL. The IC80 (TZM-bl neutralization) [4] was 8.98 µg/mL, the IC50 (TZM-bl neutralization) [5] was 0.042 µg/mL and the IC50 (TZM-bl neutralization) [6] was 1.46 µg/mL. The IC50 (TZM-bl neutralization) [7] was 3.63 µg/mL, the IC80 (TZM-bl neutralization) [8] was 0.559 µg/mL and the IC50 (TZM-bl neutralization) [9] was 0.004 µg/mL. It also gave an IC50 (TZM-bl neutralization) [10] of 0.017 µg/mL, an IC50 (TZM-bl neutralization) [11] of over 50 µg/mL and an IC50 (TZM-bl neutralization) [12] of over 50 µg/mL. The IC50 (TZM-bl neutralization) [13] was 3.35 µg/mL, the IC80 (TZM-bl neutralization) [14] was over 50 µg/mL and the IC80 (TZM-bl neutralization) [15] was over 50 µg/mL. For the same substance, the IC50 (TZM-bl neutralization) [16] was 0.101 µg/mL, the IC50 (TZM-bl neutralization) [17] was 0.083 µg/mL and the IC50 (TZM-bl neutralization) [18] was 0.037 µg/mL. The IC50 (TZM-bl neutralization) [19] was over 50 µg/mL, the IC80 (TZM-bl neutralization) [20] was over 50 µg/mL and the IC50 (TZM-bl neutralization assay) [21] was 0.147 µg/mL. For the same substance, the IC80 (TZM-bl neutralization assay) [21] was 1.1 µg/mL, the IC80 (TZM-bl neutralization) [22] was 8.54 µg/mL and the IC80 (TZM-bl neutralization) [23] was over 50 µg/mL. For the same substance, the IC50 (TZM-bl neutralization) [24] was over 50 µg/mL, the IC80 (TZM-bl neutralization) [25] was 0.584 µg/mL and the IC50 (TZM-bl neutralization assay) [26] was 0.263 µg/mL. For the same substance, the IC80 (TZM-bl neutralization assay) [26] was 0.714 µg/mL, the IC80 (TZM-bl neutralization) [27] was 3.15 µg/mL and the IC50 (TZM-bl neutralization) [28] was 0.056 µg/mL. For the same substance, the IC50 (TZM-bl neutralization) [29] was 7.89 µg/mL, the IC80 (TZM-bl neutralization) [30] was 7.35 µg/mL and the IC80 (TZM-bl neutralization) [31] was over 50 µg/mL. The IC50 (TZM-bl neutralization) [32] was 0.249 µg/mL, the IC80 (TZM-bl neutralization) [33] was over 50 µg/mL and the IC80 (TZM-bl neutralization) [34] was 0.152 µg/mL. It also gave an IC50 (TZM-bl neutralization) [35] of 0.054 µg/mL, an IC80 (TZM-bl neutralization) [36] of 5.88 µg/mL and an IC80 (TZM-bl neutralization) [37] of over 50 µg/mL. The IC50 (TZM-bl neutralization) [38] was over 50 µg/mL, the IC80 (TZM-bl neutralization) [39] was 0.026 µg/mL and the IC80 (TZM-bl neutralization) [40] was 0.11 µg/mL. It also gave an IC80 (TZM-bl neutralization) [41] of over 50 µg/mL, an IC80 (TZM-bl neutralization) [42] of over 50 µg/mL and an IC80 (TZM-bl neutralization) [43] of over 50 µg/mL. For the same substance, the IC50 (TZM-bl neutralization) [44] was 0.576 µg/mL, the IC50 (TZM-bl neutralization) [45] was under 0.001 µg/mL and the IC50 (TZM-bl neutralization) [46] was over 50 µg/mL. It also gave an IC80 (TZM-bl neutralization) [47] of over 50 µg/mL, an IC50 (TZM-bl neutralization assay) [48] of 0.008 µg/mL and an IC80 (TZM-bl neutralization assay) [48] of 0.03 µg/mL. It also gave an IC80 (TZM-bl neutralization) [49] of over 50 µg/mL and an IC50 (TZM-bl neutralization) [50] of 0.014 µg/mL.
